Assay results from patent publication US6368619B1, “Hydrophobic preparations of hydrophilic species and process for their preparation” (Provalis UK Limited, priority 1993, dated 2002).

Tests used:
Type in all cases: physicochemical
[1] = Dispersion of hydrophilic species/amphiphile array in hydrophobic solvent: visual optical clarity
[2] = Turbidity of oil preparations by optical density / absorbance (plate reader); conditions: Example 9: egg lysophosphatidyl choline, oleic acid, 4.6 mg insulin/g
Protocol: It is very much preferred that the preparations of the invention are optically clear and this can be monitored by measuring turbidity at visible wave lengths and, in some cases, by checking for sedimentation over a period of time. […]
Aprotinin was dissolved in distilled water at a concentration of 10 mg/ml. Hexadecyl phosphocholine (HDPoC) was dissolved in distilled water at a concentration of 100 mg/ml. To aliquots of 100 μl of aprotinin solution, volumes of HDPOC were added ranging from 0 through to 10, 20, 30, 40 to 50 μl. The mixtures were frozen at −20° C. and lyophilised overnight. The following day 100 μl of oleic acid was added to each sample and shaken for one hour at room temperature on an orbital shaker.
Octyl glucoside was dissolved in distilled water and dispensed into wells of a microplate to give the following amounts of amphiphile per well: −0, 0.5, 1.0, 1.5, 2.0, 2.5, 5, 7.5 and 10 mg. Aprotinin was dissolved in distilled water at a concentration of 5 mg/ml, and 100 μl was dispensed into each well above, containing 0.5 mg of protein. The plate was mixed well, frozen at −20° C. and lyophilised overnight. The following day, […] of oleic acid was added to each well. The plate was shaken at room temperature, and optical density measurements at 550 nm taken at intervals with a plate reader. A low absorbance value indicates a low level of scattering, and corresponds to effective dispersion of protein in oil.
The results, expressed in terms of optical density as a function of octyl glucoside concentration (at constant protein concentration) at different times after addition of oleic acid are given in the table and accompanying graph.

[3] = Stability of oil preparations on storage, standing or freeze-thawing (appearance)
Protocol: Egg PC SUVs at a concentration of 100 mg PC/ml were prepared as in Example 1. An insulin solution at 10 mg/ml was made by preparing an aqueous suspension at a slightly higher concentration, adding glacial acetic acid at a rate of 20 mg/g of insulin used, and then adding sufficient water to give the desired insulin concentration. After mixing and standing for 15 minutes, a clear solution was formed. To 1.25 ml of SUVs in a test-tube, were added 1.25 ml of insulin solution, and the mixture shell-frozen and freeze-dried overnight. The following day, 0.252 g of oleic acid was added and the tube vortexed to completely “wet” the lyophilate.
The HRPO solution was divided into two -equal portions, and one portion was put through five freeze-thaw cycles by cooling repeatedly to +4° C., solidifying the oleic acid each time, before bringing it back to room temperature.
The same procedure employed as described in Example 19, except that bovine brain sphingomyelin was used instead of phosphatidyl choline, resulting in proportions by weight of insulin/sphingomyelin/oleic acid of 5/50/200.

[4] = Optical density at 600 nm of melanin solutions in oil (M818) and water; conditions: for Measurement at 600 nm, Water: Example 26: melanin alone in distilled water
Protocol: 10 mg of melanin were added to 1 ml of distilled water, and dissolved after raising pH with ammonium hydroxide solution. 50 ul of this concentrated solution was diluted 20-fold by addition to 950 ul of distilled water. To two rows of seven wells of a microplate 0, 12.5, 25, 37.5, and 50 ul of the dilute solution were added, and 12.5 and 25 ul of the concentrated solution. To each well of one row was added 100 ul of a soya phosphatidyl choline dispersion prepared by sonication for ten minutes with cooling at a concentration of 100 mg/ml. The other row was left untouched, the plate was mixed well, frozen at −20° C. and lyophilised overnight. The following day, 100 ul of M818 were added to wells in the row containing melanin/lipid complex, and 100 ul of distilled water was added to the wells in the row containing melanin alone. […] It will be seen from the table and accompanying graph that Beer-Lambert's law is obeyed over this concentration range (ie the response curve is linear), and that the behaviour of melanin is identical for both oil and aqueous solutions.

[5] = Centrifugation of melanin dispersions in M818

insulin
appearance of preparation ([1]; Example 5: egg PC SUVs, 0.252 g oleic acid, left overnight): yellow, optically clear dispersion displaying strong opalescence | appearance of dispersion ([1]; Example 6: 5 mg soy PC, 0.47 mg protein, 100 mg diolein, initially granular): became clear after 2 hours | appearance of dispersion ([1]; Example 8: DPPC SUVs 15 mg, 1.4 mg protein, 300 mg oleic acid): clear | appearance of dispersion ([1]; Example 9: egg lysophosphatidyl choline micelles, 0.3 g oleic acid): clear dispersion | insulin content of clear dispersion ([1]; Example 9: egg lysophosphatidyl choline, oleic acid): 4.6 mg insulin/g of oleic acid | appearance of dispersion ([1]; Example 10: soy PC SUVs, 300 mg Miglyol 810, following day): slightly opalescent | appearance of dispersion ([1]; Example 10: soy PC SUVs, 300 mg Miglyol 812, following day): completely clear | appearance of dispersion ([1]; Example 10: soy PC SUVs, 300 mg Miglyol 818, following day): completely clear | appearance of dispersion ([1]; Example 10: soy PC SUVs, 300 mg Miglyol 829, following day): turbid gel | appearance of dispersion ([1]; Example 10: soy PC SUVs, 300 mg Miglyol 840, following day): completely clear | appearance of solution ([1]; Example 20: bovine brain sphingomyelin, insulin/sphingomyelin/oleic acid 5/50/200, one hour mixing): completely clear solution | appearance of dispersions ([1]; Example 33: soy PC SUV, melts of tripalmitin, triheptadecanoin or tristearin with 2% oleic acid, 78 C, 1 to 2 hours): almost clear dispersions | appearance of dispersion ([1]; Example 36: AOT amphiphile, 200 mg octanol, standing overnight): clear after standing overnight | absorbance at 600 nm [2]: 0.023 | change in appearance (eg sedimentation) on storage ([3]; Example 5: 7 weeks storage under nitrogen in a sealed tube at room temperature): no apparent change in the appearance | appearance on standing ([3]; Example 20: sphingomyelin/oleic acid, room temperature for several days): solid opaque gel | appearance of gel on warming ([3]; Example 20: sphingomyelin/oleic acid, warming to 37° C.): clear solution again

melanin
Measurement at 600 nm, Water ([4]; Concn 0.0625 mg/ml): 0.072 | Measurement at 600 nm, Water ([4]; Concn 0.125 mg/ml): 0.159 | Measurement at 600 nm, Water ([4]; Concn 0.187 mg/ml): 0.23 | Measurement at 600 nm, Water ([4]; Concn 0.25 mg/ml): 0.333 | Measurement at 600 nm, Water ([4]; Concn 1.25 mg/ml): 1.259 | Measurement at 600 nm, Water ([4]; Concn 2.5 mg/ml): 2.653 | Measurement at 600 nm, Miglyol ([4]; Example 26: melanin/soya PC complex in M818, Concn 0.0625 mg/ml): 0.078 | Measurement at 600 nm, Miglyol ([4]; Example 26: melanin/soya PC complex in M818, Concn 0.125 mg/ml): 0.157 | Measurement at 600 nm, Miglyol ([4]; Example 26: melanin/soya PC complex in M818, Concn 0.187 mg/ml): 0.23 | Measurement at 600 nm, Miglyol ([4]; Example 26: melanin/soya PC complex in M818, Concn 0.25 mg/ml): 0.306 | Measurement at 600 nm, Miglyol ([4]; Example 26: melanin/soya PC complex in M818, Concn 1.25 mg/ml): 1.565 | Measurement at 600 nm, Miglyol ([4]; Example 26: melanin/soya PC complex in M818, Concn 2.5 mg/ml): 2.857 | behaviour of dispersion on centrifugation ([5]; Example 26: dispersed in M818 by sonication in the absence of phosphatidyl choline): black dispersion, which sedimented out after centrifugation giving a clear supernatant | behaviour of dispersion on centrifugation ([5]; Example 26: melanin/lipid complex dispersed in M818): No such changes were observed after centrifugation
